According to PMC9300613 (2022):

B1: HsKHC-MDN (human kinesin-1 heavy chain KIF5B construct equivalent to CaKip3-MDN) (domain or fragment)
chain: MADLAECNIKVMCRFRPLNESEVNRGDKYIAKFQGEDTVVIASKPYAFDRVFQSSTSQEQVYNDCAKKIVKDVLEGYNGTIFAYGQTSSGKTHTMEGKLHDPEGMGIIPRIVQDIFNYIYSMDENLEFHIKVSYFEIYLDKIRDLLDVSKTNLSVHEDKNRVPYVKGCTERFVCSPDEVMDTIDEGKSNRHVAVTNMNEHSSRSHSIFLINVKQENTQTEQKLSGKLYLVDLAGSEKVSKTGAEGAVLDEAKNINKSLSALGNVISALAEGSTYVPYRDSKMTRILQDSLGGNCRTTIVICCSPSSYNESETKSTLLFGQRAKTIKNTVCVN
B2: CaKip3-MDN (Candida albicans Kip3 motor domain and slightly truncated neck-linker, residues 1-436) (domain or fragment)
chain: MSYPNSLGSPATVTSTSVPTAKQSSISVAVRVRPFTEAESNRLVKIDNDDVFLGDGCLTSDNNNNNNNSNSNGNGNGNGSSAANSSGASTSRRAIFNTLGGLRKIINVVDDRMLIFDPPETNPLTKMQRNAFPNSFKGSRIREHRFVFDRLFDEDCTQDQVYRNTTQPLLDSVLDGYNATVFAYGATGCGKTHTISGTPEDPGVIFLTMKELYNRIEELKDTKIIDISLSYLEIYNETIRDLLNPMTQCKNLVIREDANNKISVSNLSRHRPNSVEEVMQLILEGNKNRTCSPTEANATSSRSHAVLQINVIQKDRTGDITEEHTFATLSIIDLAGSERAAATKNRGARLNEGANINKSLLALGNCINALCDPRRRNHVPYRDSKLTRLLKFSLGGNCKTVMIVCVSPSSQHYDETLNTLKYADRAKEIKTKLIRN

Molecular target: bovine brain αβ-tubulin (taxol-stabilised microtubules, dolastatin-induced rings or DARPin-capped free dimer … (bovine, UniProt Q6B856 1-445))
Assay: AMPPNP

Chain of bovine brain αβ-tubulin (taxol-stabilised microtubules, dolastatin-induced rings or DARPin-capped free dimer … (chain, as listed by the source, chain 1 of 2): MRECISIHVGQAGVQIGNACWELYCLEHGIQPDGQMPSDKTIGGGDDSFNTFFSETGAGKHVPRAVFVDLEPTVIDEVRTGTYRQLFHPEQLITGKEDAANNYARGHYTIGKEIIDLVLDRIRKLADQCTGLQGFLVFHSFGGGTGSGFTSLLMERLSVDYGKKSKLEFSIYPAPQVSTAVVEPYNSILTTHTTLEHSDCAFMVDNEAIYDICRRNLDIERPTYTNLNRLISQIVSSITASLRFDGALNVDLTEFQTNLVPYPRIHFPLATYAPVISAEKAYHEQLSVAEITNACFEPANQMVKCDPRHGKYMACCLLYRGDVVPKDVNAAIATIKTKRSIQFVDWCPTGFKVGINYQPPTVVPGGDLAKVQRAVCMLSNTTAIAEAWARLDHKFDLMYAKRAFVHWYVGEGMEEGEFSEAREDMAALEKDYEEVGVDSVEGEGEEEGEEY
Chain of bovine brain αβ-tubulin (taxol-stabilised microtubules, dolastatin-induced rings or DARPin-capped free dimer … (Q6B856 whole entry, chain 2 of 2): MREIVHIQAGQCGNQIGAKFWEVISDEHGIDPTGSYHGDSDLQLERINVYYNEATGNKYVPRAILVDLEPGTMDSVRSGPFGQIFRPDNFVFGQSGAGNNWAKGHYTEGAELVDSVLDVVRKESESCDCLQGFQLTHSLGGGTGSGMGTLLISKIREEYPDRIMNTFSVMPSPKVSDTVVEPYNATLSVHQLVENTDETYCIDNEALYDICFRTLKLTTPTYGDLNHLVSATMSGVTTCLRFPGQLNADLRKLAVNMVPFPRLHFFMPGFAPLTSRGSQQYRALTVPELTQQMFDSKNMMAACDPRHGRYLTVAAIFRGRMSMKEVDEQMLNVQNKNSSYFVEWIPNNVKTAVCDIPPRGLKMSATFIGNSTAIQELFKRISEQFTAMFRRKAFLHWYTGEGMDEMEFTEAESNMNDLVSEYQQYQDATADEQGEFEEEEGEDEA

Binder	Kd [nM]
B1	350
B2	43
